The results in this text go back to US20250346673A1 (DUALITY BIOLOGICS SUZHOU, published 2025).

Numbering of substitutions follows the chain as printed.

B1: Hu033-02 (antibody, IgG1, V domains shown)
VH: EVQLVESGGGLVKPGGSLRLSCAASGFTFSSYGMSWVRQAPGKGLEWVSTISSGDSYTYYPDSVKGRFTISRDNAKNSLYLQMNSLRAEDTAVYYCARQIYYDYAYYFDFWGQGTTVTVSS
VL: DIVLTQSPASLAVSPGQRATITCRASESVSFRTSHLMHWYQQKPGQPPKLLIYGASNLESGVPARFSGSGSETDFTLTINPVEAEDTANYYCQQSIEDPPTFGGGTKVEIK
notes: Humanized IgG1; also called Hu033-02(BM2)
B2: Hu033-10 (antibody, IgG1, V domains shown)
VH: B1 VH with S30R, G44R
VL: B1 VL
notes: Humanized IgG1; also called Hu033-10(BM4)
B3: Hu033-04 (antibody, IgG1, V domains shown)
VH: B1 VH
VL: DIVMTQSPDSLAVSLGERATINCRASESVSFRTSHLMHWYQQKPGQPPKLLIYGASNLESGVPDRFSGSGSGTDFTLTISSLQAEDVAVYYCQQSIEDPPTFGGGTKVEIK
notes: Humanized IgG1; also called Hu033-04(BM0)
B4: Hu033-16 (antibody, IgG1, V domains shown)
VH: B1 VH with S30R, G44R
VL: EIVLTQSPATLSLSPGERATLSCRASESVSFRTSHLMHWYQQKPGQAPRLLIYGASNLESGIPARFSGSGSETDFTLTISRLEPEDFAVYFCQQSIEDPPTFGGGTKVEIK
notes: Humanized IgG1; also called Hu033-16(BM4)
B5: Hu033-23 (antibody, IgG1, V domains shown)
VH: B1 VH with S30R, G44R, R87K
VL: B4 VL with E72G, F91Y
notes: Humanized IgG1; also called Hu033-23(BM3)
B6: Hu033-15 (antibody, IgG1, V domains shown)
VH: B1 VH with S30R, G44R
VL: B4 VL with E72G, F91Y
notes: Humanized IgG1; also called Hu033-15(BM2)
B7: Hu033-13 (antibody, IgG1, V domains shown)
VH: B1 VH with S30R, G44R
VL: B3 VL with M4L, Y91F
notes: Humanized IgG1; also called Hu033-13(BM4)
B8: Hu033-08 (antibody, IgG1, V domains shown)
VH: B1 VH
VL: B4 VL
notes: Humanized IgG1; also called Hu033-08(BM2)
B9: Hu033-12 (antibody, IgG1, V domains shown)
VH: B1 VH with S30R, G44R
VL: B3 VL
notes: Humanized IgG1; also called Hu033-12(BM2)
B10: Hu033-06 (antibody, IgG1, V domains shown)
VH: B1 VH
VL: B3 VL with M4L, G72E, S81P, Y91F
notes: Humanized IgG1; also called Hu033-06(BM3)
B11: Hu033-03 (antibody, human IgG1, kappa)
heavy: not shown
light: DIVLTQSPASLAVSPGQRATITCRASESVSFRTSHLMHWYQQKPGQPPKLLIYGASNLESGVPARFSGSGSETDFTLTINPVEAEDTANYFCQQSIEDPPTFGGGTKVEIKRTVAAPSVFIFPPSDEQLKSGTASVVCLLNNFYPREAKVQWKVDNALQSGNSQESVTEQDSKDSTYSLSSTLTLSKADYEKHKVYACEVTHQGLSSPVTKSFNRGEC
notes: Humanized IgG1, wild-type Fc; also called Hu033-03(BM3)

One assay has as its target T1, Recombinant Human BDCA2 (human, UniProt Q8WTT0 45-213, limits assumed).
T1 construct: also called hBDCA2 (SPR analyte); human BDCA2 antigen
T1 sequence (looked up): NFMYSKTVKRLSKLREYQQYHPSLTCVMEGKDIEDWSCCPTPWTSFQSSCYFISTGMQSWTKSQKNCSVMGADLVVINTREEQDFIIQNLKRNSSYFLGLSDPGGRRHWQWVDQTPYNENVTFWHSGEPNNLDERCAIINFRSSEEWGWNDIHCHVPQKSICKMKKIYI
Kind of assay: SPR (BIAcore), antibody captured by anti-human IgG (Fc), hBDCA2 as analyte, 1:1 model. On the procedure: Then 1 M ethanolamine was injected at 10 μL/min flow rate for 420 seconds, and the excess active carboxyl groups on chip were blocked. The humanized antibodies were injected into a detection channel flow cell at flow rate of 10 μL/min for 60 s for capture after diluting to 1 μg/mL using running buffer. […] The sample hBDCA2 to be tested of each concentration gradient was injected into the detection channel at 30 μL/min flow rate, two samples at 0 concentration were used to remove background signal. The binding and dissociation times between antigen and antibody were 180 and 400 sec, respectively. An analysis of data was performed using Biacore Insight Evaluation Software (Version 2.0. 15.12933). A 1:1 binding model was selected for curve fitting and kinetic parameters were calculated after subtraction of signal of the reference channel (flow cell 1) and at 0 concentration.
For orientation: In SPR one partner is held on a chip, and binding of the other changes the refractive index at the surface.
The Kd is the concentration at which binding is half-saturated. As usually defined, the koff is the first-order rate constant of dissociation. One may read the kon as the second-order rate constant of association. Consider B1, for which the Kd came to 239 pM, the koff was 0.000169 s⁻¹ and the kon was 707000 M⁻¹ s⁻¹.
For the molecule B2, the dissociation constant Kd was 200 pM, the koff came out at 0.000118 s⁻¹ and the kon is 589000 M⁻¹ s⁻¹.
B3: the dissociation constant (Kd) stood at 323 pM, the dissociation rate constant (koff) was 0.000193 s⁻¹ and the kon is 598000 M⁻¹ s⁻¹.
In the case of B4, the dissociation constant (Kd) stood at 191 pM, the koff is 0.000108 s⁻¹ and the on-rate (kon) was determined as 569000 M⁻¹ s⁻¹.
Taken in the same sequence, the figures for B5 were 444 pM, 0.000207 s⁻¹ and 466000 M⁻¹ s⁻¹.
The matching figures for B6: 467 pM, 0.000227 s⁻¹ and 487000 M⁻¹ s⁻¹.
Taken in the same sequence, the figures for B7 were 338 pM, 0.000153 s⁻¹ and 454000 M⁻¹ s⁻¹.
Consider B8, for which the dissociation constant (Kd) stood at 229 pM, the koff was determined as 0.000169 s⁻¹ and the on-rate constant (kon) amounted to 740000 M⁻¹ s⁻¹.
Taken in the same sequence, the figures for B9 were 283 pM, 0.000149 s⁻¹ and 527000 M⁻¹ s⁻¹.
As to B10, the Kd stood at 170 pM, the koff was 0.000125 s⁻¹ and the kon came to 733000 M⁻¹ s⁻¹.
Take B11: the Kd was 236 pM, the off-rate constant (koff) amounted to 0.000136 s⁻¹ and the on-rate (kon) amounted to 576000 M⁻¹ s⁻¹.

For the next assay, the target named is T2, cynomolgus BDCA2 (cynomolgus monkey, UniProt A0A2K5UWP4 1-212).
T2 construct: whole, on cells; also called Cyno BDCA2; cynoBDCA2
T2 sequence: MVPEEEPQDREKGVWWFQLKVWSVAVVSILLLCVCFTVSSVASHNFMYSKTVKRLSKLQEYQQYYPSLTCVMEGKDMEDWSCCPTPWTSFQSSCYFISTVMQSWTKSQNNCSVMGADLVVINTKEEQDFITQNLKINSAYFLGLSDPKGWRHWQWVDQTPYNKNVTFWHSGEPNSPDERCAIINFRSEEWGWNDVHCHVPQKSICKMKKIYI
The assay can be described thus: FACS, 293F-cynoBDCA2 cells. As to the method:
(§1) The cells were recovered and resuspended to 2×10⁶/mL with FACS buffer (PBS+2% FBS). The resuspended cells were added to 3799 cell plates at 100 μL/well, and the supernatant was discarded after centrifugation at 300 g. […] The cells were incubated at 4° C. for 1 h. The incubated cells were centrifuged at […] for 5 min and washed twice with FACS buffer. 100 μL Goat anti-Human IgG (H+L) Cross-Adsorbed Secondary Antibody, Alexa Fluor 488 (Sigma, A11013; 1:1000) secondary antibody was added, washed twice with FACS buffer after incubation at 4° C. for 1 h. The cells were resuspended with PBS, then the fluorescence signal of antibodies bound to cell surface was analyzed with FACS (BD FACS CantoTM II) instrument and curves were fitted with GraphPad Prism6 to calculate EC₅₀ values for antibodies binding to BDCA2 antigen.
On the technique in general: In flow cytometry, cells or beads pass a laser one at a time.
The term EC50 denotes the concentration that produces a half-maximal response. Read a low EC50 as greater potency. As for B1, a half-maximal response (EC50) required 1200 pM.
On the same count and under the same terms, for B2 the value was 1270 pM; for B3, 1330 pM.
Same read-out and setting: for B4 the value was 1370 pM.
B5 returned a concentration giving a half-maximal response (EC50) of 1240 pM.
Still for that read-out and setting: for B6 the value was 1270 pM; for B7, 1130 pM; for B8, 1530 pM.
Still for that read-out and setting: with B9 the figure was 1070 pM.
The same measure, in the same setting: with B10 the figure was 1410 pM; with B11, 1400 pM.

Another assay deals with T3, human FcγRIIA (H167) (human, UniProt P12318 36-218, limits assumed, biotinylated (site not stated)).
T3 construct: also called Fey RIIA (H167)
T3 sequence (looked up): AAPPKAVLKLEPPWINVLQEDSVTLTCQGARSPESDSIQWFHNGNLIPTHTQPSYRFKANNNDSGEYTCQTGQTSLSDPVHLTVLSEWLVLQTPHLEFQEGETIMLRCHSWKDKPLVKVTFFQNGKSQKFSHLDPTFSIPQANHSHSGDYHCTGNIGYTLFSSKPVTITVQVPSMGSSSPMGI
Kind of assay: SPR (BIAcore 8K), biotinylated FcγRIIA (H167) on SA chip, antibody as analyte, 1:1 binding. On the procedure:
(§2) Antibody kinetics or affinity parameters were measured using BIAcore 8K and freshly fixed biotinylated human Fe γ RIIA(R167)/Fc γ RIIA (H167) SA chips. The experiment was run at 25° C. with a running buffer of 1×HBS-EP+(10 mM HEPES pH 7.4, 150 mM NaCl, 3 mM EDTA, 0.05% Surfactant P20). […] The binding and dissociation times of the antibody were 60 and 90 seconds, respectively. Two zero concentration samples are used to remove background signals. The sample was injected in a multi cycle manner, the analyte can be fully dissociated from the chip surface at the end of each cycle, and no regeneration step was applied. Data analysis was perform using Biacore Insight Evaluation Software (Version 2.0.15.12933). After deducting the reference channel (flow cell 1) and two zero concentration signals, affinity analysis was performed using a 1:1 binding model or steady-state model for curve fitting and calculation of kinetic parameters.
As for B11, binding was put at a Kd of 941000 pM, the dissociation rate constant (koff) came out at 0.339 s⁻¹ and the kon was found to be 361000 M⁻¹ s⁻¹.

In another assay the target is T4, human BDCA2 (human, UniProt Q8WTT0 1-213).
T4 sequence (looked up): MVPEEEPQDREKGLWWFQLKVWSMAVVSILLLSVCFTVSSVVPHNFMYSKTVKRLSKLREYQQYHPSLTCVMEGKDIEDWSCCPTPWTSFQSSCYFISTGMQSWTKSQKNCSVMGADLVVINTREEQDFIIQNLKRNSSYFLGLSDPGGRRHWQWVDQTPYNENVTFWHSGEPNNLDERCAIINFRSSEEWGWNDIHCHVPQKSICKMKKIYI
The assay can be described thus: cell-based or functional assay.
As for B1, the “EC50 (nM), inhibition of CpG-A stimulated IFNα release from human PBMC” value (“EC50 (nM), inhibition” for short) was 0.02 nM.
The same measure, in the same setting: for B2 the value was 0.01 nM.
On to B3, for which the “EC50 (nM), inhibition” value is 0.03 nM.
Same read-out and setting: for B4 the value was 0.01 nM.
Still for that read-out and setting: with B5 the figure was 0.03 nM.
Still for that read-out and setting: with B6 the figure was 0.02 nM; with B7, 0.01 nM; with B8, 0.02 nM.
As for B9, the “EC50 (nM), inhibition” value amounted to 0.02 nM.
Same read-out and setting: with B10 the figure was 0.02 nM; with B11, 0.01 nM.

The next assay deals with T5, human FcγRIIA (R167) (human, UniProt P12318 36-218, limits assumed, biotinylated (site not stated)).
T5 construct: also called Fe γ RIIA(R167); Fcγ RIJA (R167)
T5 sequence (looked up): T3 sequence (looked up) with H132R
Kind of assay: SPR (BIAcore 8K), biotinylated FcγRIIA (R167) on SA chip, antibody as analyte, 1:1 binding. As to the method:
as §2
B11 showed a dissociation constant (Kd) of 510000 pM, a koff of 0.782 s⁻¹ and a kon of 1.53e+06 M⁻¹ s⁻¹.

The target of another assay is T4, human BDCA2. Kind of assay: FACS, CHOK1-humanBDCA2 cells. As to the method: as §1
Consider B1, for which the EC50 is 440 pM.
The same measure, in the same setting: for B2 the value was 510 pM.
Same read-out and setting: for B3 the value was 610 pM.
Still for that read-out and setting: with B4 the figure was 630 pM.
On to B5, for which the EC50 is 790 pM.
Molecule B6 came in with an EC50 of 760 pM.
On the same count and under the same terms, for B7 the value was 680 pM; for B8, 620 pM.
Take B9: the half-maximal effective concentration (EC50) turned out to be 450 pM.
Still for that read-out and setting: with B10 the figure was 620 pM.
B11 showed a concentration giving a half-maximal response (EC50) of 500 pM.
